Numbering of substitutions follows the chain as printed. In names and notes the source's numbering stands.
Assays:
[1] = biological target: the molecule itself; assay: AUC; sedimentation velocity at increased protein concentration (RIP2K at 10 and 18 μM; range tested 4 to 18 μM); 42,000 r.p.m., 4°C; 20 mM Tris pH 7.5, 50 mM NaCl, 5% glycerol, 250 μM TCEP; oligomers beyond the dimer
[2] = biological target: the molecule itself; assay: AUC; sedimentation velocity at low protein concentration (3-5 μM); 42,000 r.p.m., 4°C; 20 mM Tris pH 7.5, 50 mM NaCl, 5% glycerol, 250 μM TCEP; monomer to dimer
[3] = biological target: the molecule itself; assay: native MS; 3-5 μM protein in 250 mM ammonium acetate with 1 mM DTT, nano-ESI Q-TOF; RIP2K_(D146N) as the staurosporine sample
[4] = biological target: the molecule itself; assay: crystal structure; RIP2K_(L294F) 5 mg/ml with 2 mM AMPPCP and 5 mM MgCl2; sitting drop, 20°C; P4(1)2(1)2, a dimer in the asymmetric unit; 2.0 Å

B1: RIP2K_(K47R) (RIP2 kinase domain 1-300, kinase-dead mutant K47R, not phosphorylated) (domain or fragment, UniProt O43353 1-300, looked up)
chain: MNGEAICSALPTIPYHKLADLRYLSRGASGTVSSARHADWRVQVAVRHLHIHTPLLDSERKDVLREAEILHKARFSYILPILGICNEPEFLGIVTEYMPNGSLNELLHRKTEYPDVAWPLRFRILHEIALGVNYLHNMTPPLLHHDLKTQNILLDNEFHVKIADFGLSKWRMMSLSQSRSSKSAPEGGTIIYMPPENYEPGQKSRASIKHDIYSYAVITWEVLSRKQPFEDVTNPLQIMYSVSQGHRPVINEESLPYDIPHRARMISLIESGWAQNPDERPSFLKCLIELEPVLRTFEEI
notes: Not phosphorylated by mass spectrometry; also called Rip2_(K47R)
[1]
  stoichiometry N: 4
[2]
  stoichiometry N: 2

B2: RIP2K_(D146N) (RIP2 kinase domain 1-300, kinase-dead mutant D146N, not phosphorylated) (domain or fragment, UniProt O43353 1-300, looked up)
chain: B1 chain with R47K, D146N
notes: Not phosphorylated by mass spectrometry; also called RIP2K_(D146N)-STAU; RIP2KD146N-STAU; source: mixed with 0.5 mM staurosporine during dialysis
[3]
  stoichiometry N: 2

B3: RIP2K (kinase domain of Receptor Interacting protein kinase 2, residues 1-300), wild type, phosphorylated (domain or fragment, UniProt O43353 1-300, looked up)
chain: B1 chain with R47K
modifications: auto-phosphorylated in vitro: phosphoserine at 174, 176, 178 and at 180 or 181 (a maximum of five phosphorylation sites)
notes: also called WT RIP2K; RIP2K_(1-300); source: de-phosphorylated with lambda phosphatase and re-phosphorylated before native MS and AUC
[2]
  stoichiometry N: 2

B4: RIP2K_(L294F) (RIP2 kinase domain 1-300 with the spontaneous mutation L294F), crystallised with AMPPCP (domain or fragment)
chain: GAMAMNGEAICSALPTIPYHKLADLRYLSRGASGTVSSARHADWRVQVAVKHLHIHTPLLDSERKDVLREAEILHKARFSYILPILGICNEPEFLGIVTEYMPNGSLNELLHRKTEYPDVAWPLRFRILHEIALGVNYLHNMTPPLLHHDLKTQNILLDNEFHVKIADFGLSKWRMMSLSQSRSSKSAPEGGTIIYMPPENYEPGQKSRASIKHDIYSYAVITWEVLSRKQPFEDVTNPLQIMYSVSQGHRPVINEESLPYDIPHRARMISLIESGWAQNPDERPSFLKCLIELEPVFRTFEEI
notes: The methods say the AMPPCP crystals came from RIP2K_(L294F); the results call this structure wild-type RIP2K; no density for the phosphorylation sites; also called RIPK_(L294F); RIP2K-AMPPCP; not shown: His-tag, N-terminal, cleaved
[4]
  binding result: binds
